Measured values reported in publication PMC4039629.

How the values were obtained:
GST-MYC(1-263) (human) = experiment: pull-down + cross-linking
[1] = target: GST-MYC(2-108) E[54,100]A (human); experiment: pull-down
[2] = target: GST-MYC(2-108) E100A (human); experiment: pull-down
[3] = target: GST-MYC(2-108) E54A (human); experiment: pull-down
GST-MYC 1-98 (human) = experiment: pull-down

Row | percent of the protein in the extract crosslinked (GST-MYC(1-263) (human)) [%] | percent reduction of GCN5 binding against wt GST-MYC(2-108) [1] [%] | percent reduction of GCN5 binding against wt GST-MYC(2-108) [2] [%] | percent reduction of GCN5 binding against wt GST-MYC(2-108) [3] [%] | percent reduction of GCN5 binding on deletion of residues 99-108 (GST-MYC 1-98 (human)) [%] | Substance
1 | 1 | – | – | – | – | transcription/transformation-associated protein (TRRAP), endogenous in HeLa cells (from UniProt Q9Y4A5 1-3859) (natural protein)
2 | 1 | – | – | – | – | GCN5 acetyltransferase, endogenous in HeLa cells (from UniProt Q92830 1-837) (enzyme)
3 | – | 50 | 20 | 40 | 90 | purified recombinant human GCN5-S (pRSETA-His6-GCN5-S) (enzyme)
